{"source": "patent US20230331781A1", "about": "“PAR4 DERIVED PEPTIDES, ANALOGS AND USES THEREOF” (Yissum Research Development Company of the Hebrew …, priority 2019, published 2023)", "molecules": {"B1": {"name": "hPar4 D349A (receptor, human, UniProt Q96RI0 48-385, looked up)", "chain": "GYPGQVCANDSDTLELPDSSRALLLGWVPTRLVPALYGLVLVVGLPANGLALWVLATQAPRLPSTMLLMNLAAADLLLALALPPRIAYHLRGQRWPFGEAACRLATAALYGHMYGSVLLLAAVSLDRYLALVHPLRARALRGRRLALGLCMAAWLMAAALALPLTLQRQTFRLARSDRVLCHDALPLDAQASHWQPAFTCLALLGCFLPLLAMLLCYGATLHTLAASGRRYGHALRLTAVVLASAVAFFVPSNLLLLLHYSDPSPSAWGNLYGAYVPSLALSTLNSCVDPFIYYYVSAEFRAKVRAGLFQRSPGDTVASKASAEGGSRGMGTHSSLLQ", "notes": "whole, on cells; also called PAR4MutD; flg-Par4Mut D349A"}}, "key": {"MDA-MB-231 cells": {"tested_on": "MDA-MB-231 cells", "test": "PAR4 induced Matrigel invasion of MDA-MB-231 cells", "assay_type": "cell-based, human", "settings": "AYPGKF activated MDA-MB-231 cells, FIGS. 3B and 3C"}, "PAR4-Akt association": {"target": "T1, PAR4-Akt association (Homo sapiens, UniProt P31749)", "T1 construct": "FLAG; expressed in transfected cells", "test": "PAR4-Akt association, immunoprecipitation in HEK293 cells transfected with flg-Par4 and AYPGKF activated", "assay_type": "cell-based", "settings": "HEK 293T cells, wt flg-Par4, AYPGKF activation, FIG. 3D", "experimental": "(§1) Experiments shown in FIG. 3A-3C were carried out in MDA-MB-231 cells. […] Unpaired Student's t test was used. This experiment is a representative of three independent experiments performed in triplicates. […] HEK 293T cells were transfected with wt flg-Par4 followed by AYPGKF activation of PAR4. IP was performed using anti fig abs of cells treated or not with CTP4-A peptide and immunoblotting with anti-Akt abs.\nFIG. 4A—PH-Akt module alone binds PAR4-C-tail but not mutant R25C. HEK 293 cells were transiently transfected with flg-Par4 construct and either with GFP-PH-Akt domain alone or GFP-R25C. IP of cell lysates following PAR4 AYPGKF activation was carried out using anti-flg abs. Detection of either Akt-PH domain alone associated with PAR4 was performed with anti-GFP. […] FIG. 4C—The PI3K inhibitor […] inhibits the binding of Akt to PAR4. Treatment of HEK 293 cells with LY294002 for various time points or not, following transient transfection with flg-Par4 and AYPGKF activation was performed. Cell lysates were immunoprecipitated with anti-flg antibodies, and anti-Akt was used to assess the association of Akt with the PAR4 C-tail. […] Amino acid residues of PAR4- and PAR2-PH binding motifs. FIG. 4E—mutations inserted into flg-Par4 generated flg-Par4MutE346A. HEK293 cells were transiently transfected with either wt flg-Par4 or flg-Par4MutE346A. IP of cell lysates following PAR4 activation was carried out using anti-flg abs. Detection of PAR4-Akt association was performed by anti Akt Abs. While association with wt Par4 is seen after 5 and 10 min AYPGKF PAR4 activation, when using flg-Par4 E346A no inhibition is seen and effective association with Akt is seen at 30 min activation. FIG. 4F—utations inserted into flg-Par4 generated flg-Par4Mut F347A and flg-Par4Mut D349A. HEK293 cells were transiently transfected with either wt flg-Par4 or flg-Par4Mut F347A or flg-Par4Mut D349A. IP of cell lysates following PAR4 activation was carried out using anti-f/g abs. Detection of PAR4-Akt association was performed by anti Akt Abs. While association with wt Par4 is seen after 5 min AYPGKF PAR4 activation, no such binding is obtained when using either flg-Par4 F347A or flg-Par4D349A.\nHEK293 cells were transiently transfected with flg-Par4 followed by AYPGKF PAR4 activation in the presence and absence of PAR4c (4-4) within the range of 50 nM-150 μM. IP of cell lysates following different periods of activation was carried out using anti flg abs. Detection of Akt was performed by anti Akt abs. β-actin serves as a control gene for loading. […] Matrigel invasion before and after AYPGKF PAR4 activation and in the presence and absence of PAR4 c(4-4) inhibitor in the activated PAR4 cells. […] FIG. 8C—Histograms represent quantification of the cells/HPF invaded the Matrigel layer. […]"}, "PAR4 and Akt": {"target": "T2, PAR4 and Akt (Homo sapiens, UniProt P31749)", "T2 construct": "endogenous in cells; host or cells: MDA-MB-231", "test": "Inhibition of binding of PAR4 to Akt by PAR4 C-tail peptides (FIG. 3A)", "assay_type": "cell-based", "settings": "MDA-MB-231 cells", "experimental": "as §1\nWe evaluated the ability of these peptides to inhibit the binding of PAR4 to Akt protein. […] The PH-domain of Akt/PKB associates with PAR4. To elucidate whether Akt/PKB binds via its PH-domain, constructs of either wt Akt/PKB PH-domain were applied alone or an Akt/PKB-PH domain mutant R25C, impaired in its lipid binding capability of the Akt/PKB-PH domain. Transient transfections of flg-hPar4 and either wt GFP-PH-domain or PH-domain R25C mutant were carried out in HEK293 cells. Cells were activated by the PAR4 AYPGKF ligand for the indicated periods of time and the lysates were further processed for IP analysis. Distinct binding of GFP-Akt/PKB-PH domain module alone with the PAR4 C-tail was obtained (FIG. 4A). […] The mutant constructs (e.g., wt: YVSAEFRDKVRA; mutant F347L: YVSAELRDKVRA=PAR4MutF; mutant D349A: YVSAEFRAKVRA=PAR4MutD) were further evaluated for association with Akt/PKB. […]"}, "[1]": {"target": "T3, Akt/PKB (protein kinase B) (UniProt P31749 1-480, limits assumed)", "T3 construct": "Endogenous Akt of human cell lines", "test": "co-IP: anti-flg IP from HEK293 cells transfected with the mutant, anti-Akt blot (FIG. 4F)", "experimental": "FIG. 4A—PH-Akt module alone binds PAR₄-C-tail but not mutant R25C. HEK 293 cells were transiently transfected with flg-Par4 construct and either with GFP-PH-Akt domain alone or GFP-R25C. IP of cell lysates following PAR₄ AYPGKF activation was carried out using anti-flg abs. Detection of either Akt-PH domain alone associated with PAR₄ was performed with anti-GFP. […] FIG. 4C—The PI3K inhibitor […] inhibits the binding of Akt to PAR₄. Treatment of HEK 293 cells with LY294002 for various time points or not, following transient transfection with flg-Par4 and AYPGKF activation was performed. Cell lysates were immunoprecipitated with anti-flg antibodies, and anti-Akt was used to assess the association of Akt with the PAR₄ C-tail. […] Amino acid residues of PAR₄- and PAR₂-PH binding motifs. FIG. 4E—mutations inserted into flg-Par4 generated flg-Par4MutE346A. HEK293 cells were transiently transfected with either wt flg-Par4 or flg-Par4MutE346A. IP of cell lysates following PAR₄ activation was carried out using anti-flg abs. Detection of PAR₄-Akt association was performed by anti Akt Abs. While association with wt Par4 is seen after 5 and 10 min AYPGKF PAR₄ activation, when using flg-Par4 E346A no inhibition is seen and effective association with Akt is seen at 30 min activation. FIG. 4F—utations inserted into flg-Par4 generated flg-Par4Mut F347A and flg-Par4Mut D349A. […]"}}, "note": "Entries after “also recorded” stand apart in the source; their conditions may differ."}
{"molecule": "H-DTVASKASAEGG-OH [CTP4-C, downstream PAR4 C-tail peptide]", "values": [{"measurement": "inhibition of PAR4 induced Matrigel invasion", "setting": "MDA-MB-231 cells", "value": "no effect"}]}
{"molecule": "H-RAGLFQRSPGDT-OH [CTP4-B, downstream PAR4 C-tail peptide]", "values": [{"measurement": "inhibition of PAR4-Akt association (IP)", "setting": "PAR4-Akt association", "value": "not"}, {"measurement": "inhibition of PAR4 induced Matrigel invasion", "setting": "MDA-MB-231 cells", "value": "no effect"}]}
{"molecule": "H-YVSAEFRDKVRA-OH [Peptide 1]", "values": [{"measurement": "inhibition of PAR4-Akt association (IP)", "setting": "PAR4-Akt association; listed as CTP4-A", "value": "inhibited; also recorded: potently inhibits"}, {"measurement": "inhibition of PAR4 induced Matrigel invasion", "setting": "MDA-MB-231 cells; listed as CTP4-A", "value": "significantly inhibit; also recorded: attenuated"}, {"measurement": "inhibition of interaction between PAR4 and Akt", "setting": "PAR4 and Akt", "value": "effectively inhibited"}]}
{"molecule": "B1", "values": [{"measurement": "binding result", "setting": "[1]", "value": "no binding"}]}
